Results as given in the supplement of paper PMC9170038.

System: MS2 coat protein
Experiment: apparent KD of MS2 coat protein; designed switch direction (-1 OFF switch, 1 ON switch): -1; higher = weaker reporter binding
Procedure, shortened: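 Designed RNA switches with common flanks were made on Illumina chips by stalled E. coli RNA polymerase. Titration with SNAP-549-labelled MS2 coat protein doubled from 0.7 or 1.5 nM up to 3 µM. Apparent KD is each design's median over clusters after curve-fitting normalised fluorescence.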

[1] = Eterna round: R95, input ligand: FMN 200 uM
[2] = Eterna round: R95, input ligand: microRNA oligo, concentration not stated
[3] = Eterna round: R95, input ligand: none
[4] = input ligand: microRNA oligo, concentration not stated

| Sequence | apparent KD of MS2 coat protein [1] [nM] | apparent KD of MS2 coat protein [2] [nM] | apparent KD of MS2 coat protein [3] [nM] | apparent KD of MS2 coat protein (input ligand: FMN 200 uM) [nM] | apparent KD of MS2 coat protein (input ligand: none) [nM] | apparent KD of MS2 coat protein [4] [nM] |
| --- | --- | --- | --- | --- | --- | --- |
| CUGAGGUAGCGGUCCUAUGACAUGAGGAUCACCCAUGUACCUUGCUUUGAGCUUUUUGCUCGUCUUAUGAUUCUCGG [JL Atriat mod 6] (puzzle: Sensor v3, turn-off variant 1) | 472 | 283 | 462 |  |  |  |
| AGCUGACGAGGAUAUACAUGAGGAUCACCCAUGUAAGAUCAGCGACGAUAGUCGCAAUGUAGAAGGCGUCAGCU [E3/10-A2] (Eterna round: R97, puzzle: Exclusion 3) |  |  |  | 299 | 30.1 |  |
| GAAGAGACAGGAUAUACAUGAGGAUCACCCAUGUGAGGAGGUUGGAAGCGGAGAAGGUGUAGAAGGGUCAAAGA [JR_Exclu3_Sub023] (puzzle: Exclusion 3) | 75.1 | 37.1 | 80.7 |  |  |  |
| AUCAUGUAAGGAUAUCUUACAUGUGACUUCGGUCACUGUUCAGAGAAGGUACAUGAGGAUCACCCAUGUAGAAC [Ex4-3: 45] (puzzle: Exclusion 4) |  | 18.5 |  |  |  |  |
| AUCAGUCGAGGAUAUACGAUCGUGCUUCGGCACGUAAGAUCACAUGAGGAUCACCCAUGUAGAAGGCGACUGAU [Mod 8 - Jieux - Exclusion 2] (Eterna round: R97, puzzle: Exclusion 2) |  |  |  | 463 | 30.4 |  |
| GAUACACAUGAGGAUCACCCAUGUGAGGAUAUGCGUACGUUGUCCGUAGGCGACGUGCGCAGAAGGCGCAAAGG [Mat - Mod of JL D97] (puzzle: Exclusion 1) | 85.1 | 41.3 | 86 |  |  |  |
| CUUAGACAUGAGGAUCACCCAUGUGAGGAUAUGAUGCGAAUAAAGAAAGAAGAAAGCAUCAGAAGGCACAUAUG [Fiskers Ex 1 - 1] (puzzle: Exclusion 1) | 111 | 121 | 97.9 |  |  |  |
| GCAAAAUAUCAGGAUAUGACUAGCUGCGGCUAGUCAGAAGGGAUGACAUGAGGAUCACCCAUGUGAUCUCGUGU [JR_Ex6_Sub028] (Eterna round: R97, puzzle: Exclusion 6) |  |  |  | 487 | 177 |  |
| UAUUUGCAAGCGAGAUCCCACAUGAGGAUCACCCAUGUUCUUGGAAAGUACAGAAUUACUGUACAAGCUCGUCUUCU [mod-Eli/newD-last] (Eterna round: R97, puzzle: Sensor, turn-off variant 1) |  |  |  | 18.9 | 20.4 |  |
| UAACUGUGAGGAUAUUCGUAGUACACGGAGACGUGUAUUACGGAGAAGGCACAUGAGGAUCACCCAUGUUCCUU [Default title] (Eterna round: R97, puzzle: Exclusion 4) |  |  |  | 75.6 | 17.4 |  |
| CGGGCCGGCCUUCCGGCCGGCCCGACAUGAGGAUCACCCAUGUAGGAUAUCCCGGCUGCCGGCCGGGAGAAGGGCGUGCGUCCU [-50.4, -49.5 kcal, 14% A] (Eterna round: R96, puzzle: Exclusion NG 3) |  |  |  | 101 | 91.6 | 53.6 |
| AAUAACAGGCCGAUCCUAAACAUGAGGAUCACCCAUGUGCUCGUCUUGUAAAGUACUAUCACGAAAGUGAUAGUACA [Sensor v3, turn-off variant 1 (MOD of Eli's v1-59 v.2 )] (puzzle: Sensor v3, turn-off variant 1) | 39.9 | 419 | 31.4 |  |  |  |
| GUGUCGUAAGGAUAUUUACCUGAGCCACUAGAGCGCUUGGAGAAGAAGGUACAUGAGGAUCACCCAUGUGGUGA [Eternabot (L2) Solution 61] (Eterna round: R97, puzzle: Exclusion 4) |  |  |  | 1430 | 2570 |  |
| UUGACCCACGUCAGGAUAUCAAGAAAAGAGGCUCUUGAGAAGGGACAUGAGGAUCACCCAUGUAAGAAAUAAAU [Qumabibe] (puzzle: Brourd's mod of Exclusion 4) | 101 | 28.4 | 34.6 |  |  |  |
| CUGAGCUGAGGAUAUACAUGAGGAUCACCCAUGUAAAGUAGCUUGCGUACAGGCAGAUGUAGAAGGCAGUUCGG [Mod of JL 2 - Jieux - Exclusion 3] (Eterna round: R97, puzzle: Exclusion 3) |  |  |  | 34.7 | 20.5 |  |
| UAUUAAUGCAAGGAUAUGCUUUUAAUUUUUUUUGCAGAAGGUGCAACAUGAGGAUCACCCAUGUUUGAGGGUAU [JR_E6_Sub030] (puzzle: Exclusion 6) | 68.4 | 59 | 53.8 |  |  |  |
| UGCCUUUGAGGAUAUACGUAGAAAUAGAUUCAUGUAAAACUACAUGAGGAUCACCCAUGUAGAAGGCAAGGGCU [Mat - Exclusion 2 - JL Mod - D48] (Eterna round: R97, puzzle: Exclusion 2) |  |  |  | 164 | 24 |  |

| Sequence | apparent KD of MS2 coat protein [1] [nM] | apparent KD of MS2 coat protein [2] [nM] | apparent KD of MS2 coat protein [3] [nM] | apparent KD of MS2 coat protein (input ligand: FMN 200 uM) [nM] | apparent KD of MS2 coat protein (input ligand: none) [nM] | apparent KD of MS2 coat protein [4] [nM] |
| --- | --- | --- | --- | --- | --- | --- |
| GGUGCGUUUGUGAGGAUAUGCUGGUCCUUGGAUCAGCAGAAGGCACAUGAGGAUCACCCAUGUGGUGUCGUACC [salish99_Bmod_Ex4_030] (puzzle: Brourd's mod of Exclusion 4) |  | 273 |  |  |  |  |
| GAGAAGGUAGGAUAUACGAAUAAAAAGGGUAGAAGAAGAACACAUGAGGAUCACCCAUGUAGAAGGACCAAGAG [Mat - Exclusion 2 - Mod of my Tesla design - D22] (puzzle: Exclusion 2) | 44 | 17.2 | 17.6 |  |  |  |
| AUUAUAAAGUCAGGAUAUCGGUUUAUAAUAUUACGAGAAGGGACAUGAGGAUCACCCAUGUAUUAACACUACUAUGUCAACUAA [1st Attempt] (Eterna round: R96, puzzle: Exclusion NG 1) |  |  |  |  |  | 33.3 |
| ACAUGACUGCUAGGAUAUAGAUGACAUGAGGAUCACCCAUGUUGUCUCAUGUUUAUGGAAACGGACUAGAAGGAGUAGUAUAUG [Ex NG2 #15] (Eterna round: R96, puzzle: Exclusion NG 2) |  |  |  | 20.6 | 21.3 | 14.5 |
| AAAGUACAUGAGGAUCACCCAUGUCAGGAUAUUGCCACAAGGCCCGGAGCCCAGAGCGCGAGAAGGGACAUUAG [Eternabot (Original) Solution 12] (Eterna round: R97, puzzle: Exclusion 1) |  |  |  | 55.4 | 24 |  |
| AGUACUAUGCGAGCUGACUUGCGUAGUGCAGCAGGUGAAACAUGAGGAUCACCCAUGUCCUCAUUUGCUCGUCUUAU [Mat - Sensor v3 - Turn-off var 2 - D2] (puzzle: Sensor v3, turn-off variant 2) | 34.3 | 502 | 33.8 |  |  |  |
| GUUUGACAUGAGGAUCACCCAUGUAAGGAUAUACGAGUAGAUGAUAGAUAGAUAGUAAGUAGAAGGUACGUGUU [Translation] (Eterna round: R97, puzzle: Exclusion 1) |  |  |  | 70.6 | 105 |  |
| AUCGUGCAGCUUUGCUGUACGAGUACAUGAGGAUCACCCAUGUAGGAUAUGGUACGCAAAGCGUGCUAGAAGGAUAUGAGAUUA [Mat - Exclusion NG 3 - Mod of JL - D96] (Eterna round: R96, puzzle: Exclusion NG 3) |  |  |  | 24.2 | 28.8 | 21.5 |
| UUGCCACAUGAGGAUCACCCAUGUGAGGAUAUGGCCUGUUUGGAGUGUGCUGGUUCUGUCAGAAGGCGCGUGGG [salish99_ex1_r4_033] (Eterna round: R97, puzzle: Exclusion 1) |  |  |  | 49.5 | 33.6 |  |
| GGUGCUGGCGCGUCGGUGUUGGUGCAAUAAGCUUGUGAAACAUGAGGAUCACCCAUGUCCUCAUAAGCUCGUCUUGU [salish99_TOv2_r2_087] (puzzle: Sensor v3, turn-off variant 2) | 14.4 | 283 | 12.8 |  |  |  |
| GCCGGUCAUGUAGGAUAUGGCCGGCGGUGCCGGCCAGAAGGACAUGAGGAUCACCCAUGUGCCGGCCUUUGGCCGGCGCCCGGC (Eterna round: R96, puzzle: Exclusion NG 1) |  |  |  | 8.65 | 18.6 | 11.2 |
| CAGUACUGAGGAUAUACAUGAGGAUCACCCAUGUGGGAGAUACUAGUGAGGUCGAUUAGUAGAAGGCAGUACUG [Mat X3R4 m21] (Eterna round: R97, puzzle: Exclusion 3) |  |  |  | 903 | 184 |  |
| GUAGUGUGAGGAUAUGGUAAAGAUAAGAUGAUGAAAGAACUCCAGAAGGCACAUGAGGAUCACCCAUGUAGAUU [Mat - Exclusion 4 - Mod of JL - D26] (puzzle: Exclusion 4) | 49.8 | 19.7 | 26 |  |  |  |
| UAAUUGAUUAAUAGAUUAUACAUGAGGAUCACCCAUGUAGAUCCUACGUGCCAUUUAAGUAGCUCGUCUUAUUAUUA [Sensor-V1 #65] (Eterna round: R97, puzzle: Sensor, turn-off variant 1) |  |  |  | 59.4 | 64.5 |  |
| CGGUGACGGGUGAGGAUAUCGUGUUCGAAAGAACGUGAGAAGGCACAUGAGGAUCACCCAUGUGAUCCUCAUCG [Omei Ex4B A31] (Eterna round: R97, puzzle: Brourd's mod of Exclusion 4) |  |  |  | 412 | 56.1 |  |
| CUUUCGUGAGGAUAUCAGUAGUAAAAUAAUAAAAUUACUACUGAGAAGGCACAUGAGGAUCACCCAUGUUCCUC [salish99_ex3_r3_099] (puzzle: Exclusion 4) |  | 24.9 |  |  |  |  |
